Target: the molecule itself
Experiment: cross-linking; chemical cross-linking in TrkA-transfected PC12 cells, with or without LPC; data not shown

B1: tropomyosin-related kinase A (TrkA) (receptor)
chain: not shown
  stoichiometry N: 2
